# In IntAct's records for PubMed 19644450:
# B1: Isoform 2 of C-Jun-amino-terminal kinase-interacting protein 4 (Homo sapiens), O60271-2 (parent)
# chain: MELEDGVVYQEEPGGSGAVMSERVSGLAGSIYREFERLIGRYDEEVVKELMPLVVAVLENLDSVFAQDQEHQVELELLRDDNEQLITQYEREKALRKHAEEKFIEFEDSQEQEKKDLQTRVESLESQTRQLELKAKNYADQISRLEEREAELKKEYNALHQRHTEMIHNYMEHLERTKLHQLSGSDQLESTAHSRIRKERPISLGIFPLPAGDGLLTPDAQKGGETPGSEQWKFQELSQPRSHTSLKDELSDVSQGGSKATTPASTANSDVATIPTDTPLKEENEGFVKVTDAPNKSEISKHIEVQVAQETRNVSTGSAENEEKSEVQAIIESTPELDMDKDLSGYKGSSTPTKGIENKAFDRNTESLFEELSSAGSGLIGDVDEGADLLGMGREVENLILENTQLLETKNALNIVKNDLIAKVDELTCEKDVLQGELEAVKQAKLKLEEKNRELEEELRKARAEAEDARQKAKDDDDSDIPTAQRKRFTRVEMARVLMERNQYKERLMELQEAVRWTEMIRASRENPAMQEKKRSSIWQFVPTRFSRLFSSSSNTTKKPEPPVNLKYNAPTSHVTPSVKKRSSTLSQLPGDKSKAFDFLSEETEASLASRREQKREQYRQVKAHVQKEDGRVQAFGWSLPQKYKQVTNGQGENKMKNLPVPVYLRPLDEKDTSMKLWCAVGVNLSGGKTRDGGSVVGASVFYKDVAGLDTEGSKQRSASQSSLDKLDQELKEQQKELKNQEELSSLVWICTSTHSATKVLIIDAVQPGNILDSFTVCNSHVLCIASVPGARETDYPAGEDLSESGQVDKASLCGSMTSNSSAETDSLLGGITVVGCSAEGVTGAATSPSTNGASPVMDKPPEMEAENSEVDENVPTAEEATEATEGNAGSAEDTVDISQTGVYTEHVFTDPLGVQIPEDLSPVYQSSNDSDAYKDQISVLPNEQDLVREEAQKMSSLLPTMWLGAQNGCLYVHSSVAQWRKCLHSIKLKDSILSIVHVKGIVLVALADGTLAIFHRGVDGQWDLSNYHLLDLGRPHHSIRCMTVVHDKVWCGYRNKIYVVQPKAMKIEKSFDAHPRKESQVRQLAWVGDGVWVSIRLDSTLRLYHAHTYQHLQDVDIEPYVSKMLGTGKLGFSFVRITALMVSCNRLWVGTGNGVIISIPLTETNKTSGVPGNRPGSVIRVYGDENSDKVTPGTFIPYCSMAHAQLCFHGHRDAVKFFVAVPGQVISPQSSSSGTDLTGDKAGPSAQEPGSQTPLKSMLVISGGEGYIDFRMGDEGGESELLGEDLPLEPSVTKAERSHLIVWQVMYGNE
# Variants of: B1
# Conditions: with arf6_human ARF6, P62330
# Sequence of arf6_human ARF6, P62330 (P62330 whole entry): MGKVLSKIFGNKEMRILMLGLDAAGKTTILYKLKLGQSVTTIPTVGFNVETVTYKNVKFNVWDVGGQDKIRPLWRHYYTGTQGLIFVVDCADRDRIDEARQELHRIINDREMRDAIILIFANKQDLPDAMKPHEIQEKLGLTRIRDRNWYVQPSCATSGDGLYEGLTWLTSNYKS
row,effect of a mutation on the interaction,Variant
1,decreasing interaction,I421A

# Variants of: B1
# Conditions: with arf6_human ARF6, P62330
# Remark: another data set of the same source
row,effect of a mutation on the interaction,Variant
1,decreasing interaction,D425A
